In patent US20230293644A1, “ANTI-INFLAMMATORY PEPTIDES AND COMPOSITION COMPRISING THE SAME” (Gemvax & KAEL Co., Ltd., priority 2012, published 2023):

Legend:
Type in all cases: cell-based, rat
HHGB1 = assay: 2D-electrophoresis protein expression in neural stem cells: HHGB1; conditions: β-amyloid alone; negative control 1.0
Method: (§1) Protein expression level of PEP-1 treated group and untreated group was analyzed by 2D-electrophoresis technique and antibody microarray technique. Prepared 200ug by extracting proteome from the neural stem cells cultured in Experiment 1-1 of example 3. In addition, the group in which PEP-1 was not treated was used as the comparison group in the same condition.
(§2) 2D-electrophoresis was performed using 12% acrylamide gels. First gel electrophoresis was performed at Pl 4~10N, using a gel size of 8.5×7cm. After electrophoresis, it was dyed with Colloidal Coomassie Blue, and then compared expression by using PDQuest software to analyze each spot.
(§3) Difference in the expression levels of more than 1.5 times was identified using MALDI-TOF MS (Matrix Desoprtion/lionization Time of Flight Mass Spectromestry). Among these, proteins correlated with inflammation-related signaling, such as i-NOS and HMGB-1 were identified (Refer to Table 6). The changes in protein expression levels either increased or decreased by 1.5 times by amyloid-β protein, but it was confirmed that expression level was regulated close to that of negative control when PEP-1 was added (Refer to FIG. 57).
(§4) The Table 6 below is an analysis of expression levels of proteins associated with inflammation by 2D electrophoresis technique. […]

e-N0S = assay: 2D-electrophoresis protein expression in neural stem cells: e-N0S; conditions: β-amyloid alone; negative control 1.0
Method: as §1, §2, §3, §4

HSP 90 = assay: 2D-electrophoresis protein expression in neural stem cells: HSP 90; conditions: β-amyloid alone; negative control 1.0
Method: as §1, §2, §3, §4

HSP 70 = assay: 2D-electrophoresis protein expression in neural stem cells: HSP 70; conditions: β-amyloid alone; negative control 1.0
Method: as §1, §2, §3, §4

Pyk2 = assay: 2D-electrophoresis protein expression in neural stem cells: Pyk2; conditions: β-amyloid alone; negative control 1.0
Method: as §1, §2, §3, §4

MAP Kinase = assay: 2D-electrophoresis protein expression in neural stem cells: MAP Kinase; conditions: β-amyloid alone; negative control 1.0
Method: as §1, §2, §3, §4

i-N0S = assay: 2D-electrophoresis protein expression in neural stem cells: i-N0S; conditions: β-amyloid alone; negative control 1.0
Method: as §1, §2, §3, §4

GAUD 153 = assay: 2D-electrophoresis protein expression in neural stem cells: GAUD 153; conditions: β-amyloid alone; negative control 1.0
Method: as §1, §2, §3, §4

neural stem cells = assay: Amyloid-β toxicity assessment on neural stem cells; conditions: 20 µM amyloid-β protein, 48 hours
Method: After removing the cortex from the head of an embryonic rat that had been pregnant for 13 days, it was cultured for a week with Basic Fibroblast Growth Factor (bFGF) to obtain the neural stem cells. To analyze the effects of the amyloid-β protein on the neural stem cells, the pre-oligomerized amyloid-β protein of concentrations 0 to 40 µM was treated on neural stem cells for 48 hours, then CCK-8 assay, BrdU, and TUNEL assay were used for cytotoxicity assessment (refer from BA Yankner et al, 1990 and KN Dahlgren et al, 2002).

Substance: amyloid-β protein
- HHGB1 expression, 20ug β -amyloid treated group (fold) (HHGB1): -1.5 fold
- e-N0S expression, 20ug β -amyloid treated group (fold) (e-N0S): 1.9 fold
- HSP 90 expression, 20ug β -amyloid treated group (fold) (HSP 90): -1.8 fold
- HSP 70 expression, 20ug β -amyloid treated group (fold) (HSP 70): -2.3 fold
- Pyk2 expression, 20ug β -amyloid treated group (fold) (Pyk2): 2.0 fold
- MAP Kinase expression, 20ug β -amyloid treated group (fold) (MAP Kinase): 2.2 fold
- i-N0S expression, 20ug β -amyloid treated group (fold) (i-N0S): 1.9 fold
- GAUD 153 expression, 20ug β -amyloid treated group (fold) (GAUD 153): 1.6 fold
- cell survival (neural stem cells): 60%
